Measured values reported in patent publication US20140294817A1 (LEUKOSIGHT, published 2014).

How the values were obtained:
[1] = molecular target: T1, Fcγ-receptor III (mice, UniProt P08508 31-261); experiment: flow cytometry saturation binding on HeLa cells expressing FcγRIII; reference rabbit IgG
T1 construct: whole, on cells; HeLa cells transfected with an FcγRIII plasmid, RFP-tagged; also called FcγRIII; not shown: red fluorescent protein tag (RFP) attached to the intracellular portion
T1 sequence (looked up): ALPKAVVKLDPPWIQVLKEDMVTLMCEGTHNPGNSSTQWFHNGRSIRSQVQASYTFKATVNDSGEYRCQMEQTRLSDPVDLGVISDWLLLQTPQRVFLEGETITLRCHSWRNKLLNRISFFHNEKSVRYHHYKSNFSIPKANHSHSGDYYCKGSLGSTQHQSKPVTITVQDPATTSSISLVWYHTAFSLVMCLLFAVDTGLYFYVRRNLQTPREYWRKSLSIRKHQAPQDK
From the text: (§1) There are four Fc-gamma receptors (FcγRs) in mice including: Fcγ-receptor I, Fcγ-receptor III, Fcγ-receptor IV, and Fcγ-receptor IIb. The genes for each of the Fcγ-receptor I, Fcγ-receptor III, Fcγ-receptor IV, and Fcγ-receptor IIb were cloned into four separate plasmids. […] A red fluorescent protein tag (RFP) is attached to the intracellular portion of the FcγR (FIG. 56A). Thus, binding to the FcγR of a transfected HeLa cell will result in a signal transduction that causes the cells to fluoresce red, which may be measured by flow cytometry.
(§2) Polypeptides comprising a first and second Fc fragment of rabbit IgG in dimeric form and whole rabbit IgG were quantified by ELISA, using the whole rabbit IgG as the standards. HeLa cells that express FcγRI, HeLa cells that express FcγRIIb, HeLa cells that express FcγRIII, and HeLa cells that express FcγRIV as described in Example 13 were stained with 2-fold series diluted either with polypeptides comprising a first and second Fc fragment of rabbit IgG in dimeric form or whole rabbit IgG. The cells were then stained with Zenon Alexa Fluor 488 rabbit IgG labeling kits. […] The HeLa cells that express FcγRI, HeLa cells that express FcγRIIb, HeLa cells that express FcγRIII, and HeLa cells that express FcγRIV were gated by red fluorescence (RFP); and the mean fluorescence of Alexa Fluor was measured for the Saturation Binding Curves (FIGS. 61A-D).

[2] = molecular target: T2, Fcγ-receptor IV (mice); experiment: flow cytometry saturation binding on HeLa cells expressing FcγRIV; reference rabbit IgG
T2 construct: whole, on cells; HeLa cells transfected with an FcγRIV plasmid, RFP-tagged; also called FcγRIV
T2 sequence (A0A0B4J1G0 whole entry, looked up): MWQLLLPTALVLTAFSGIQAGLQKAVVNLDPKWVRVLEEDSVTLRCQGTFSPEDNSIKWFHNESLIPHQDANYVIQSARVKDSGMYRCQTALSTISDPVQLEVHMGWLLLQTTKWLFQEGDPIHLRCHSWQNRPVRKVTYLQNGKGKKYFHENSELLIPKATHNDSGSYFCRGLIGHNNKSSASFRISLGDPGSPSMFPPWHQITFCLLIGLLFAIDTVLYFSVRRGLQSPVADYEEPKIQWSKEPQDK
From the text: as §1, §2

[3] = molecular target: T2, Fcγ-receptor IV; experiment: flow cytometry saturation binding on HeLa cells expressing RFP-tagged FcγRIV (FIG. 61D, left panel)
From the text: as §1, §2

[4] = molecular target: T3, Fcγ-receptor I (mice, UniProt P26151 25-404); experiment: flow cytometry saturation binding on HeLa cells expressing FcγRI; reference rabbit IgG
T3 construct: whole, on cells; HeLa cells transfected with an FcγRI plasmid, RFP-tagged; also called FcγRI; not shown: red fluorescent protein tag (RFP) attached to the intracellular portion
T3 sequence (looked up): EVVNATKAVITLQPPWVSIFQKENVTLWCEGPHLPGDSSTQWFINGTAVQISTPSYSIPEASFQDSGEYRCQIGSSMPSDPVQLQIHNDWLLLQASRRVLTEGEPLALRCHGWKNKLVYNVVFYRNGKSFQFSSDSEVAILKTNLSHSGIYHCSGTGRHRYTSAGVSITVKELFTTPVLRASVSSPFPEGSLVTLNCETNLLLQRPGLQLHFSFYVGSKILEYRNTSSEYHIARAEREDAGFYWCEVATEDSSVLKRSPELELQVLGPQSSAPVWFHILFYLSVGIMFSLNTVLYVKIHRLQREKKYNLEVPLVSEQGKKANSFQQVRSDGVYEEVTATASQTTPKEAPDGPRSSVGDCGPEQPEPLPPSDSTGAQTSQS
From the text: as §1, §2

[5] = molecular target: T4, Fcγ-receptor IIb (mice, UniProt P08101 30-330); experiment: flow cytometry saturation binding on HeLa cells expressing FcγRIIb; reference rabbit IgG
T4 construct: whole, on cells; HeLa cells transfected with an FcγRIIb plasmid, RFP-tagged; also called FcγRIIb; not shown: red fluorescent protein tag (RFP) attached to the intracellular portion
T4 sequence (looked up): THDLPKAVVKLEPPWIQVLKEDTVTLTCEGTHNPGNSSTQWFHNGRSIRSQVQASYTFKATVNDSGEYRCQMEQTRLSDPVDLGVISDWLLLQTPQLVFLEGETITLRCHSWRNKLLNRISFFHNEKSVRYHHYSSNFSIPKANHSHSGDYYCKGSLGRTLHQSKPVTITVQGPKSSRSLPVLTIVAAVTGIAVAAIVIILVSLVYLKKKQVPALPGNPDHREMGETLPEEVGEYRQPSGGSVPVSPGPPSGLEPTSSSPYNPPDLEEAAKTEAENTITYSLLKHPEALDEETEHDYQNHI
From the text: as §1, §2

[6] = molecular target: T1, Fcγ-receptor III; experiment: flow cytometry saturation binding on HeLa cells expressing RFP-tagged FcγRIII (FIG. 61C, left panel)
From the text: as §1, §2

[7] = molecular target: T4, Fcγ-receptor IIb; experiment: flow cytometry saturation binding on HeLa cells expressing RFP-tagged FcγRIIb (FIG. 61B, left panel)
From the text: as §1, §2

[8] = molecular target: T3, Fcγ-receptor I; experiment: flow cytometry saturation binding on HeLa cells expressing RFP-tagged FcγRI (FIG. 61A, left panel)
From the text: as §1, §2

- fold enhancement of binding against rabbit IgG [1]: ≥ 223 fold
- fold enhancement of binding against rabbit IgG [2]: ≥ 191 fold
- Kd [3]: ≤ 6.3 nM
- fold enhancement of binding against rabbit IgG [4]: ≥ 57.5 fold
- fold enhancement of binding against rabbit IgG [5]: ≥ 61.7 fold
- Kd [6]: ≤ 10.4 nM
- Kd [7]: ≤ 9.8 nM
- Kd [8]: ≤ 3.5 nM
B1: polypeptide comprising a first and second Fc fragment of rabbit IgG in dimeric form (Fc fusion)
chain: GGSHHHHHHGMASMTGGQQMGRDLYDDDDKAPSTCSKPTCPPPELLGGPSVFIFPPKPKDTLMISRTPEVTCVVVDVSQDDPEVQFTWYINNEQVRTARPPLREQQFNSTIRVVSTLPIAHQDWLRGKEFKCKVHNKALPAPIEKTISKARGQPLEPKVYTMGPPREELSSRSVSLTCMINGFYPSDISVEWEKNGKAEDNYKTTPAVLDSDGSYFLYSKLSVPTSEWQRGDVFTCSVMHEALHNHYTQKSISRSPGKDIVRSSKPTCPPPELLGGPSVFIFPPKPKDTLMISRTPEVTCVVVDVSQDDPEVQFTWYINNEQVRTARPPLREQQFNSTIRVVSTLPIAHQDWLRGKEFKCKVHNKALPAPIEKTISKARGQPLEPKVYTMGPPREELSSRSVSLTCMINGFYPSDISVEWEKNGKAEDNYKTTPAVLDSDGSYFLYSKLSVPTSEWQRGDVFTCSVMHEALHNHYTQKSISRSPGK
notes: The supernatants hold monomeric and dimeric forms; also called dimeric polypeptides; polypeptides in dimeric form
